Entries after “also recorded” stand apart in the source; their conditions may differ.
B1: 9901 (protein)
chain: MALPVTALLLPLALLLHAARPDIQMTQSPSSLSASVGDRVTITCKASQDVGTAVDWYQQKPGKAPKLLIYWASTRHTGVPSRFSGSGSGTDFTLTISSLQPEDFATYYCQQYNSYPLTFGQGTKVEIKRLEDLKNVFPPEVAVFEPSEAEISHTQKATLVCLATGFYPDHVELSWWVNGKEVHSGVCTDPQPLKEQPALNDSRYCLSSRLRVSATFWQNPRNHFRCQVQFYGLSENDEWTQDRAKPVTQIVSAEAWGRADCGFTSESYQQGVLSATILYEILLGKATLYAVLVSALVLMAMVKRKDSRGRAKRSGSGATNFSLLKQAGDVEENPGPTSMDWIWRILFLVGAATGAHSFEEVQLQQSGPELVKPGTSVRISCKTSGYTFTEYTIHWVKQSHGKSLEWIGNINPNNGGTTYNQKFEDKATLTVDKSSSTAYMELRSLTSEDSAVYYCAAGWNFDYWGQGTTLTVSSTRIQNPDPAVYQLRDSKSSDKSVCLFTDFDSQTNVSQSKDSDVYITDKCVLDMRSMDFKSNSAVAWSNKSDFACANAFNNSIIPEDTFFPSPESSCDVKLVEKSFETDTNLNFQNLSVIGFRILLLKVAGFNLLMTLRLWSS
modifications: Synthetic Polynucloetide
B2: 9694 (protein)
chain: MALPVTALLLPLALLLHAARPDIVMTQSHKFMSTSVGDRVSIICKASQDVGTAVDWYQQKPGQSPKLLIYWASTRHTGVPDRFTGSGSGTDFTLAITNVQSEDLADYFCQQYNSYPLTFGAGTKLEIKRLEDLKNVFPPEVAVFEPSEAEISHTQKATLVCLATGFYPDHVELSWWVNGKEVHSGVCTDPQPLKEQPALNDSRYCLSSRLRVSATFWQNPRNHFRCQVQFYGLSENDEWTQDRAKPVTQIVSAEAWGRADCGFTSESYQQGVLSATILYEILLGKATLYAVLVSALVLMAMVKRKDSRGRAKRSGSGATNFSLLKQAGDVEENPGPTSMDWIWRILFLVGAATGAHSFEEVQLQQSGPELVKPGTSVRISCKTSGYTFTEYTIHWVKQSHGKSLEWIGNINPNNGGTTYNQKFEDKATLTVDKSSSTAYMELRSLTSEDSAVYYCAAGWNFDYWGQGTTLTVSSTRIQNPDPAVYQLRDSKSSDKSVCLFTDFDSQTNVSQSKDSDVYITDKCVLDMRSMDFKSNSAVAWSNKSDFACANAFNNSIIPEDTFFPSPESSCDVKLVEKSFETDTNLNFQNLSVIGFRILLLKVAGFNLLMTLRLWSS
modifications: Synthetic Polynucloetide
B3: 9762 (protein)
chain: MALPVTALLLPLALLLHAARPDIQMTQSPSSLSASVGDRVTITCKASQDVGTAVDWYQQKPGKAPKLLIYWASTRHTGVPSRFSGSGSGTDFTLTISSLQPEDFATYYCQQYNSYPLTFGQGTKVEIKRLEDLKNVFPPEVAVFEPSKAEIAHTQKATLVCLATGFYPDHVELSWWVNGKEVHSGVCTDPQPLKEQPALNDSRYCLSSRLRVSATFWQNPRNHFRCQVQFYGLSENDEWTQDRAKPVTQIVSAEAWGRADCGITSASYHQGVLSATILYEILLGKATLYAVLVSALVLMAMVKRKDSRGRAKRSGSGATNFSLLKQAGDVEENPGPTSMDWIWRILFLVGAATGAHSFEEVQLVESGGGLVQPGGSLRLSCAASGYTFTEYTIHWVRQAPGKGLEWVANINPNNGGTTYNQKFEDRFTISRDNSKNTLYLQMNSLRAEDTAVYYCARGWNFDYWGQGTLVTVSSTRIQNPDPAVYQLRDSKSSDKSVCLFTDFDSQTNVSQSKDSDVYITDKCVLDMRSMDFKSNSAVAWSNKSDFACANAFNNSIIPEDTFFPSSDVPCDVKLVEKSFETDTNLNFQNLSVIGFRILLLKVAGFNLLMTLRLWSSRAKRSGSGVKQTLNFDLLKLAGDVESNPGPSRGHMTEYKPTVRLATRDDVPRAVRTLAAAFADYPATRHTVDPDRHIERVTELQELFLTRVGLDIGKVWVADDGAAVAVWTTPESVEAGAVFAEIGPRMAELSGSRLAAQQQMEGLLAPHRPKEPAWFLATVGVSPDHQGKGLGSAVVLPGVEAAERAGVPAFLETSAPRNLPFYERLGFTVTADVEVPEGPRTWCMTRKPGA
modifications: Synthetic Polynucloetide
B4: 9832 (protein)
chain: MALPVTALLLPLALLLHAARPDIQMTQSPSSLSASVGDRVTITCKASQDVGTAVDWYQQKPGKAPKLLISWASTRHTGVPSRFSGSGSGTDFTLTISSLQPEDFATYFCQQYNSYPLTFGQGTKVEIKRTVLEDLKNVFPPEVAVFEPSEAEISHTQKATLVCLATGFYPDHVELSWWVNGKEVHSGVCTDPQPLKEQPALNDSRYCLSSRLRVSATFWQNPRNHFRCQVQFYGLSENDEWTQDRAKPVTQIVSAEAWGRADCGFTSESYQQGVLSATILYEILLGKATLYAVLVSALVLMAMVKRKDSRGRAKRSGSGATNFSLLKQAGDVEENPGPTSMDWIWRILFLVGAATGAHSFEQVQLVQSGAEVKKPGESVKVSCKASGYTFTEYTIHWVRQAPGQGLEWMGNINPNNGGTTYNQKFEDRVTITADKSTSTAYMELSSLRSEDTAVYYCARGWNFDYWGQGTTVTVSSTRIQNPDPAVYQLRDSKSSDKSVCLFTDFDSQTNVSQSKDSDVYITDKCVLDMRSMDFKSNSAVAWSNKSDFACANAFNNSIIPEDTFFPSPESSCDVKLVEKSFETDTNLNFQNLSVIGFRILLLKVAGFNLLMTLRLWSS
modifications: Synthetic Polynucloetide
B5: 9763 (protein)
chain: MALPVTALLLPLALLLHAARPDIQMTQSPSSLSASVGDRVTITCKASQDVGTAVDWYQQKPGKAPKLLIYWASTRHTGVPSRFSGSGSGTDFTLTISSLQPEDFATYYCQQYNSYPLTFGQGTKVEIKRLEDLKNVFPPEVAVFEPSEAEISHTQKATLVCLATGFYPDHVELSWWVNGKEVHSGVCTDPQPLKEQPALNDSRYCLSSRLRVSATFWQNPRNHFRCQVQFYGLSENDEWTQDRAKPVTQIVSAEAWGRADCGFTSESYQQGVLSATILYEILLGKATLYAVLVSALVLMAMVKRKDSRGRAKRSGSGATNFSLLKQAGDVEENPGPTSMDWIWRILFLVGAATGAHSFEEVQLVESGGGLVQPGGSLRLSCAASGYTFTEYTIHWVRQAPGKGLEWVANINPNNGGTTYNQKFEDRFTISRDNSKNTLYLQMNSLRAEDTAVYYCARGWNFDYWGQGTLVTVSSTRIQNPDPAVYQLRDSKSSDKSVCLFTDFDSQTNVSQSKDSDVYITDKCVLDMRSMDFKSNSAVAWSNKSDFACANAFNNSIIPEDTFFPSPESSCDVKLVEKSFETDTNLNFQNLSVIGFRILLLKVAGFNLLMTLRLWSS
modifications: Synthetic Polynucloetide

System: LNCaP-LucPPe cells
Test: LNCaP-LucPPE xenograft in NSG mice, with rechallenge
Format: in vivo
Settings: 1 × 10^6 LNCaP-LucPPe s.c., 17 days later 3 × 10^6 T cells i.v., male NSG mice

Molecule | tumor control (bioluminescence imaging, caliper tumor volume), LNCaP-LucPPE xenograft
B1 | effective control of tumor; also recorded: statistically significant and effective tumor control
B2 | effective control of tumor
B3 | statistically significant and effective tumor control
B4 | effective control of tumor
B5 | effective control of tumor

Same assay, conditions: mouse, in vivo

Molecule | survival, LNCaP-LucPPE xenograft
B1 | improvement in survival
B2 | improvement in survival
B4 | improvement in survival
B5 | improvement in survival
